In general, stoichiometry N refers to the number of molecules, sites or subunits per partner or assembly.

The source of these data is PMC7608827 (Science Advances, 2020).

Where two headings read alike, the source gives them in different places.

To fix the notation:
B1: CaDoc0917, dockerin module of Clostridium acetobutylicum (domain or fragment, UniProt Q97KK2 477-537, looked up)
chain: NTILGDLNDDGVVNGRDIVMMRQYLAGKTVSGIDKNALDINGDGAVNGRDLMELIKKVSNN
B2: CaCohA2, cohesin module of Clostridium acetobutylicum (domain or fragment, UniProt Q977Y4 611-759, looked up)
chain: VKNETVKLSVGTVSGNPGDTVKVPVTISQVSTPVGLICMDISYDASKFTVKDVLPNTDLVKDTDNYSFIVNTSTPGKISITFTDPTLANYPISVDGILAYLDFIINSNATAGDSALTVDPATLIVADENDKDIKDAASNGKITVTGSAP

Holding throughout (assay): ITC
A general note: Isothermal titration calorimetry measures the heat released or taken up as one component is titrated into another.

Assay [1] deals with CaDoc0917(R16D) (Clostridium acetobutylicum).
Assay [2] deals with CaDoc0917(R49D) (Clostridium acetobutylicum).
Assay [3] concerns the target CaDoc0917(R16D) (Clostridium acetobutylicum). This is another data set of the same source.
The target in assay [4] is CaDoc0917(R49D) (Clostridium acetobutylicum). This is another data set of the same source.
Assay [5] concerns the target B2.
Assay [6] deals with B2. The source holds these as a separate data set.
The target in assay [7] is B2. The source holds these as a separate data set.
Assay [8] concerns the target B1.
In assay [9] the target is B1. This is another data set of the same source.
Assay [10] has as its target CaDoc0917(R49D/V19M) (Clostridium acetobutylicum).
For assay [11], the target named is CaDoc0917(R16D/I55R) (Clostridium acetobutylicum).
Assay [12] deals with CaDoc0917(R49D/R22I) (Clostridium acetobutylicum).
The target in assay [13] is CaDoc0917(R16D/M52V) (Clostridium acetobutylicum).
In assay [14] the target is B1. The source holds these as a separate data set.
Assay [15] deals with CaDoc0917(R49D/V19M) (Clostridium acetobutylicum). The source holds these as a separate data set.
Assay [16] addresses CaDoc0917(R16D/I55R) (Clostridium acetobutylicum). This is another data set of the same source.
For assay [17], the target named is CaDoc0917(R49D/R22I) (Clostridium acetobutylicum). This is another data set of the same source.
Assay [18] concerns the target CaDoc0917(R16DE53Q) (Clostridium acetobutylicum).
Assay [19] addresses CaDoc0917(R16D/M52V) (Clostridium acetobutylicum). This is another data set of the same source.

Turning to “CaCohA2 E128Q/D130N (domain or fragment)”, the Ka came out at 3.6e+06 M⁻¹ in assay [1], 1.1e+07 M⁻¹ in assay [2], 460000 M⁻¹ in [3] and 2.32e+06 M⁻¹ in assay [4].

For the molecule CaCohA2 E128Q (domain or fragment), the Ka in [1] was determined as 2.2e+07 M⁻¹; in [2], 2.1e+07 M⁻¹; in [3], 120000 M⁻¹; in assay [4], 1.57e+06 M⁻¹.

For the molecule CaCohA2 D130N (domain or fragment), the Ka was 2.1e+07 M⁻¹ in [2], 320000 M⁻¹ in assay [3] and 4.24e+06 M⁻¹ in assay [4].

With B1, the values for the Ka in [5], in assay [6] and in assay [7] were 2.4e+07 M⁻¹, 1.48e+08 M⁻¹ and 1.8e+06 M⁻¹, respectively.

On to B2, for which the dH is -4.67 ± 0.03 kcal/mol in [8], -7.37 ± 0.04 kcal/mol in assay [9] and -9.54 ± 0.13 kcal/mol in [14]. Also, the “stoichiometry N” value was determined as 0.862 ± 0.003 in [8], 0.95 ± 0.002 in [9] and 1.09 ± 0.011 in [14]. Besides, the Ka in assay [10] was determined as 5.15e+08 M⁻¹; in assay [1] it was 1.03e+08 M⁻¹; in assay [2] it was 4.3e+07 M⁻¹; in assay [11], 1.32e+08 M⁻¹; in [12] it was 2.1e+07 M⁻¹; in assay [13], 2.9e+07 M⁻¹. Besides, the Ka worked out at 1.98e+06 M⁻¹ in [15]; 170000 M⁻¹ in assay [3]; 1.39e+06 M⁻¹ in [4]; 1.04e+06 M⁻¹ in assay [16]; 180000 M⁻¹ in [17]; 1.93e+06 M⁻¹ in [18]. The same molecule showed a Ka in assay [19] of 290000 M⁻¹.
